Patent publication US20200181263A1 (NUMAB THERAPEUTICS, published 2020)
Blank lines part the entries; values can stand above or below the binder they belong to.

Experiments:
human serum albumin = target: T1, human serum albumin (human, UniProt P02768 25-609); test: SPR, target immobilised by amine coupling, binder as analyte
T1 construct: also called HSA

cyno CD3 = target: T2, cyno CD3 (cyno, UniProt Q95LI5 22-117); test: as above
T2 sequence (looked up): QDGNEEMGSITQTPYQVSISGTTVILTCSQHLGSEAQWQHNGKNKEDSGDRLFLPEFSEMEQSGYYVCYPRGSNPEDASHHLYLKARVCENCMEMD

[1] = target: T3, human CD3 gamma-epsilon single-chain (human, UniProt P09693 23-103; P07766 23-118); test: as above
T3 construct: Recombinant protein immobilised on the SPR chip

human IL-23 receptor ECD = target: T4, human IL-23 receptor ECD (human, UniProt Q5VWK5 24-355); test: as above
T4 construct: extracellular domain
T4 sequence (looked up): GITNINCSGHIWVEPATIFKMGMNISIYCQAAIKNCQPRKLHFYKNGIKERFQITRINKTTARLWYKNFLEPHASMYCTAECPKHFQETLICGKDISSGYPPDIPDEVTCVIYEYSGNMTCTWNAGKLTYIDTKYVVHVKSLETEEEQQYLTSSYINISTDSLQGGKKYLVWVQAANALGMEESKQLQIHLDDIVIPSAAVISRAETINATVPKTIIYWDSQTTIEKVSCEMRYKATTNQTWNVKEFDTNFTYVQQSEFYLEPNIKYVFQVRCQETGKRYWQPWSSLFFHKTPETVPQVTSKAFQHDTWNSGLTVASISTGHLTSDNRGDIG

[2] = target: T5, human IL23R IL12Rbeta 1 heterodimer on CHO-K1 cells (human, UniProt Q5VWK5 24-629; P42701 24-662); test: cell-based or functional assay
[3] = target: T5, human IL23R IL12Rbeta 1 heterodimer on …; test: cell-based or functional assay; remark: listed apart in the source

Kd (human serum albumin): 0.303 nM
Kd (cyno CD3): 8.48 nM
Kd [1]: 10.1 nM
Kd (human IL-23 receptor ECD): 0.0337 nM
NFAT assay EC50 (T-cell activation, 5 h) [2]: 0.423 nM
B1: PRO738 (other)
chain 1: DIQMTQSPSSLSASVGDRVTITCQASENIYSFLAWYQQKPGKAPKLLIYSASKLAAGVPSRFSGSGSGTDFTLTISSLQPEDFATYYCQQTNRYSNPDIYNVFGTGTKVTVLGGGGGSGGGGSGGGGSGGGGSEVQLVESGGGLVQPGGSLRLSCAASGIDFNSNYYMCWVRQAPGKGLEWIGCIYVGSHVNTYYANWAKGRFTISRDNSKNTVYLQMNSLRAEDTAVYYCATSGSSVLYFKFWGQGTLVTVSSGGGGSGGGGSDIQMTQSPSSLSASVGDRVTITCQSSQSVFSNNYLAWFQQKPGQSPKRLIYSASTLASGVPSRFSGSGSGTDFTLTISSLQPEDFATYYCLGSYACSSADCYVFGCGTKVTVLGGGGGSGGGGSGGGGSDIQMTQSPSSLSASVGDRVTITCQSSESVYSNNQLSWYQQKPGQPPKLLIYDASDLASGVPSRFSGSGSGTDFTLTISSLQPEDFATYYCAGGFSSSSDTAFGGGTKLTVLG
chain 2: DIQMTQSPSSLSASVGDRVTITCQASENIYSFLAWYQQKPGKAPKLLIYSASKLAAGVPSRFSGSGSGTDFTLTISSLQPEDFATYYCQQTNRYSNPDIYNVFGTGTKVTVLGGGGGSGGGGSGGGGSGGGGSEVQLVESGGGLVQPGGSLRLSCAASGIDFNSNYYMCWVRQAPGKGLEWIGCIYVGSHVNTYYANWAKGRFTISRDNSKNTVYLQMNSLRAEDTAVYYCATSGSSVLYFKFWGQGTLVTVSSGGGGSGGGGSEVQLVESGGGLVQPGGSLRLSCAASGFSLSSNAMGWVRQAPGKGLEYIGIISVGGFTYYASWAKGRFTISRDNSKNTVYLQMNSLRAEDTATYFCARDRHGGDSSGAFYLWGQGTLVTVSSGGGGSGGGGSGGGGSEVQLVESGGGLVQPGGSLRLSCAASGFSLSSYDMSWVRQAPGKCLAWIGASYASGPTYYASWAKGRFTISRDNSKNTVYLQMNSLRAEDTATYFCARGGWTGTSHSNIWGQGTLVTVSS
notes: Hetero-dimeric MATCH, anti-parallel; diS in anti-CD3 domain, 15 aa GS-linker

Kd (human serum albumin): 0.141 nM
Kd (cyno CD3): 3.19 nM
Kd [1]: 3.52 nM
Kd (human IL-23 receptor ECD): 0.0249 nM
EC50 of T-cell activation (NFAT reporter, with HSA), 5 h [3]: 266000 nM
EC50 of T-cell activation (NFAT reporter, with HSA), 30 h [3]: 102000 nM
NFAT assay EC50 (T-cell activation, 5 h) [2]: 0.19 nM
B2: PRO746 (MATCH) (other)
chain 1: DIQMTQSPSSLSASVGDRVTITCQASENIYSFLAWYQQKPGKAPKLLIYSASKLAAGVPSRFSGSGSGTDFTLTISSLQPEDFATYYCQQTNRYSNPDIYNVFGTGTKVTVLGGGGGSGGGGSGGGGSGGGGSEVQLVESGGGLVQPGGSLRLSCAASGIDFNSNYYMCWVRQAPGKGLEWIGCIYVGSHVNTYYANWAKGRFTISRDNSKNTVYLQMNSLRAEDTAVYYCATSGSSVLYFKFWGQGTLVTVSSGGGGSGGGGSDIQMTQSPSSLSASVGDRVTITCQSSQSVFSNNYLAWFQQKPGQSPKRLIYSASTLASGVPSRFSGSGSGTDFTLTISSLQPEDFATYYCLGSYACSSADCYVFGCGTKVTVLGEPEPEPEPEPEPEPDIQMTQSPSSLSASVGDRVTITCQSSESVYSNNQLSWYQQKPGQPPKLLIYDASDLASGVPSRFSGSGSGTDFTLTISSLQPEDFATYYCAGGFSSSSDTAFGGGTKLTVLG
chain 2: DIQMTQSPSSLSASVGDRVTITCQASENIYSFLAWYQQKPGKAPKLLIYSASKLAAGVPSRFSGSGSGTDFTLTISSLQPEDFATYYCQQTNRYSNPDIYNVFGTGTKVTVLGGGGGSGGGGSGGGGSGGGGSEVQLVESGGGLVQPGGSLRLSCAASGIDFNSNYYMCWVRQAPGKGLEWIGCIYVGSHVNTYYANWAKGRFTISRDNSKNTVYLQMNSLRAEDTAVYYCATSGSSVLYFKFWGQGTLVTVSSGGGGSGGGGSEVQLVESGGGLVQPGGSLRLSCAASGFSLSSNAMGWVRQAPGKGLEYIGIISVGGFTYYASWAKGRFTISRDNSKNTVYLQMNSLRAEDTATYFCARDRHGGDSSGAFYLWGQGTLVTVSSKPKPKPKPKPKPKPEVQLVESGGGLVQPGGSLRLSCAASGFSLSSYDMSWVRQAPGKCLAWIGASYASGPTYYASWAKGRFTISRDNSKNTVYLQMNSLRAEDTATYFCARGGWTGTSHSNIWGQGTLVTVSS
notes: Hetero-dimeric MATCH, anti-parallel, two anti-IL23R scFv modules on a CD3/HSA core; interchain disulfide in the anti-CD3 VL/VH interface; charged core linkers; also called MATCH-4 anti-TAA2xCD3xHSA; heterodimeric MATCH

Kd (human serum albumin): 0.482 nM
Kd (cyno CD3): 10.2 nM
Kd [1]: 11.9 nM
Kd (human IL-23 receptor ECD): 0.036 nM
NFAT assay EC50 (T-cell activation, 5 h) [2]: 46.8 nM
B3: PRO734 (other)
chain 1: DIQMTQSPSSLSASVGDRVTITCQASENIYSFLAWYQQKPGKAPKLLIYSASKLAAGVPSRFSGSGSGTDFTLTISSLQPEDFATYYCQQTNRYSNPDIYNVFGTGTKVTVLGGGGGSGGGGSGGGGSGGGGSEVQLVESGGGLVQPGGSLRLSCAASGIDFNSNYYMCWVRQAPGKGLEWIGCIYVGSHVNTYYANWAKGRFTISRDNSKNTVYLQMNSLRAEDTAVYYCATSGSSVLYFKFWGQGTLVTVSSGGGGSGGGGSDIQMTQSPSSLSASVGDRVTITCQSSQSVFSNNYLAWFQQKPGQSPKRLIYSASTLASGVPSRFSGSGSGTDFTLTISSLQPEDFATYYCLGSYACSSADCYVFGCGTKVTVLGSGGGGSGGGGSDIQMTQSPSSLSASVGDRVTITCQSSESVYSNNQLSWYQQKPGQPPKLLIYDASDLASGVPSRFSGSGSGTDFTLTISSLQPEDFATYYCAGGFSSSSDTAFGGGTKLTVLG
chain 2: DIQMTQSPSSLSASVGDRVTITCQASENIYSFLAWYQQKPGKAPKLLIYSASKLAAGVPSRFSGSGSGTDFTLTISSLQPEDFATYYCQQTNRYSNPDIYNVFGTGTKVTVLGGGGGSGGGGSGGGGSGGGGSEVQLVESGGGLVQPGGSLRLSCAASGIDFNSNYYMCWVRQAPGKGLEWIGCIYVGSHVNTYYANWAKGRFTISRDNSKNTVYLQMNSLRAEDTAVYYCATSGSSVLYFKFWGQGTLVTVSSGGGGSGGGGSEVQLVESGGGLVQPGGSLRLSCAASGFSLSSNAMGWVRQAPGKGLEYIGIISVGGFTYYASWAKGRFTISRDNSKNTVYLQMNSLRAEDTATYFCARDRHGGDSSGAFYLWGQGTLVTVSSSGGGGSGGGGSEVQLVESGGGLVQPGGSLRLSCAASGFSLSSYDMSWVRQAPGKCLAWIGASYASGPTYYASWAKGRFTISRDNSKNTVYLQMNSLRAEDTATYFCARGGWTGTSHSNIWGQGTLVTVSS
notes: Hetero-dimeric MATCH, anti-parallel; diS in anti-CD3 domain, 11 aa GS-linker
